Experimental data: patent US20020146750A1 (published 2002)

B1: 3A7 (Fab, V domains shown)
VH: QVQLVQSGGGLVQPGGSLRLSCAASGFTFRSNAMGWVRQAPGKGLEWVSGISGSGGSTYYADSVKGRFTISRDNSKNTLYLQMNSLRAEDTAVYYCAKHTGGGVWDPIDKWGQGTLVTVSS
VL: EIVLTQSPLSLPVTPGEPASISCRSSQSLLHSNGYTYLDWYLQKPGQSPQLLIYSGSHRASGVPDRFSGSVSGTDFTLRISRVEAEDVGVYYCMQGLQSPFTFGPGTKVDIKR
notes: PH1 Fab variant
B2: 3F3 (Fab, V domains shown)
VH: QVQLVQSGGGLVQPGGSLRLSCAASGFTFRSNAMGWVRQAPGKGLEWVSGISGSGGSTYYADSVKGRFTISRDNSKNTLYLQMNSLRAEDTAVYYCAKHTGRGVWDPIDYWGQGTLVTVSS
VL: EIVLTQSPLSLPVTPGEPASISCRSSQSLLHSNGYTYLDWYLQKPGQSPQLLIYSGSHRASGVPDRFSGSVSGTDFTLRISRVEAEDVGVYYCMQGLQSPFTFGPGTKVDIKR
notes: PH1 Fab variant
B3: 3D7 (Fab, V domains shown)
VH: QVQLVQSGGGLVQPGGSLRLSCAASGFTFRSNAMGWVRQAPGKGLEWVSGISGSGGSTYYADSVKGRFTISRDNSKNTLYLQMNSLRAEDTAVYYCAKHTGAGVWDPIDYWGQGTLVTVSS
VL: EIVLTQSPLSLPVTPGEPASISCRSSQSLLHSNGYTYLDWYLQKPGQSPQLLIYSGSHRASGVPDRFSGSVSGTDFTLRISRVEAEDVGVYYCMQGLQSPFTFGPGTKVDIKR
notes: PH1 Fab variant
B4: 3E2 (Fab, V domains shown)
VH: QVQLVQSGGGLVQPGGSLRLSCAASGFTFRSNAMGWVRQAPGKGLEWVSGISGSGGSTYYADSVKGRFTISRDNSKNTLYLQMNSLRAEDTAVYYCAKHTGGGVWDPIAYWGQGTLVTVSS
VL: EIVLTQSPLSLPVTPGEPASISCRSSQSLLHSNGYTYLDWYLQKPGQSPQLLIYSGSHRASGVPDRFSGSVSGTDFTLRISRVEAEDVGVYYCMQGLQSPFTFGPGTKVDIKR
notes: PH1 Fab variant
B5: 3B8 (Fab, V domains shown)
VH: QVQLVQSGGGLVQPGGSLRLSCAASGFTFRSNAMGWVRQAPGKGLEWVSGISGSGGSTYYADSVKGRFTISRDNSKNTLYLQMNSLRAEDTAVYYCAKHTGAGVWDPIDYWGQGTLVTVSS
VL: EIVLTQSPLSLPVTPGEPASISCRSSQSLLHSNGYTYLDWYLQKPGQSPQLLIYSGSHRASGVPDRFSGSVSGTDFTLRISRVEAEDVGVYYCMQGLQSPFTFGPGTKVDIKR
notes: PH1 Fab variant
B6: 3D1 (Fab, V domains shown)
VH: QVQLVQSGGGLVQPGGSLRLSCAASGFTFRSNAMGWVRQAPGKGLEWVSGISGSGGSTYYADSVKGRFTISRDNSKNTLYLQMNSLRAEDTAVYYCAQHTGGGVWDPIGYWGQGTLVTVSS
VL: EIVLTQSPLSLPVTPGEPASISCRSSQSLLHSNGYTYLDWYLQKPGQSPQLLIYSGSHRASGVPDRFSGSVSGTDFTLRISRVEAEDVGVYYCMQGLQSPFTFGPGTKVDIKR
notes: PH1 Fab variant
B7: 3B9 (Fab, V domains shown)
VH: QVQLVQSGGGLVQPGGSLRLSCAASGFTFRSNAMGWVRQAPGKGLEWVSGISGSGGSTYYADSVKGRFTISRDNSKNTLYLQMNSLRAEDTAVYYCAKHTGGGVWDPLGYWGQGTLVTVSS
VL: EIVLTQSPLSLPVTPGEPASISCRSSQSLLHSNGYTYLDWYLQKPGQSPQLLIYSGSHRASGVPDRFSGSVSGTDFTLRISRVEAEDVGVYYCMQGLQSPFTFGPGTKVDIKR
notes: PH1 Fab variant
B8: 3F4 (Fab, V domains shown)
VH: QVQLVQSGGGLVQPGGSLRLSCAASGFTFRSNAMGWVRQAPGKGLEWVSGISGSGGSTYYADSVKGRFTISRDNSKNTLYLQMNSLRAEDTAVYYCAKHTGGGVWDPIANWGQGTLVTVSS
VL: EIVLTQSPLSLPVTPGEPASISCRSSQSLLHSNGYTYLDWYLQKPGQSPQLLIYSGSHRASGVPDRFSGSVSGTDFTLRISRVEAEDVGVYYCMQGLQSPFTFGPGTKVDIKR
notes: PH1 Fab variant

Target: T1, MUC1 60-mer peptide NH2-(…)3-COOH (biotinylated in the ELISAs and selections)
T1 construct: also called biotinylated MUC1 60-mer
T1 sequence (peptide, as listed by the source): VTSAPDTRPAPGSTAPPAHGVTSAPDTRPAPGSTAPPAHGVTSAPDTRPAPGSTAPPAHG
Assay: ELISA, soluble Fab, biotinylated MUC1 60-mer; relative signal
Method: Soluble Fabs were produced as described (Roovers et al., Br. J. Cancer, 78: 1407-16 (1998)). ELISAs were performed as described by Henderikx et al. (Cancer Res., 58: 4324-4332 (1998)), except the biotinylated MUC1 60-mer was used. The selected PH1 and the affinity-matured antibodies were evaluated for affinity by surface plasmon resonance (SPR) on a BIAcore 2000 apparatus (BIAcore AB, Uppsala, Sweden). Channels of a biotin chip were coated with a MUC1 15-mer, containing the minimal PH1 epitope, PAP, (Ac-PDTRPAPGSTAPPAL-NH₂, (SEQ ID NO:40) 50 RU or 320 RU) or a 60-mer (NH₂-([…])₃-COOH (i.e., containing three copies of SEQ ID NO:8 (von Mensdorff-Pouilly et al., Tumor Biol., 19: 186-195 (1998), 50 RU) in HBS-EP buffer (Pharmacia). One surface was blocked with biotin (15 RU) and used as a negative control. The antibodies were injected in HBS-EP buffer. To minimize rebinding of the antigen binding fragments, the flow speed was 30 μl/sec. Affinity calculation was performed with the BIA-evaluation software provided by the BIAcore. The affinities of the Fabs were calculated according to a 1:1 stoichiometry at steady state.

Binding result, binds:
B1
B2
B3
B4
B5
B6
B7
B8
